From patent publication US20030129724A1 (Harvard, published 2003) come the findings set out here.

Sequences and labels used below:
B2: Recombinant FLAG-epitope tagged HDAC4 (enzyme, not shown: small tags and cut ends)
chain: MSSQSHPDGLSGRDQPVELLNPARVNHMPSTVDVATALPLQVAPSAVPMDLRLDHQFSLPVAEPALREQQLQQELLALKQKQQIQRQILIAEFQRQHEQLSRQHEAQLHEHIKQQQEMLAMKHQQELLEHQRKLERHRQEQELEKQHREQKLQQLKNKEKGKESAVASTEVKMKLQEFVLNKKKALAHRNLNHCISSDPRYWYGKTQHSSLDQSSPPQSGVSTSYNHPVLGMYDAKDDFPLRKTASEPNLKLRSRLKQKVAERRSSPLLRRKDGPVVTALKKRPLDVTDSACSSAPGSGPSSPNNSSGSVSAENGIAPAVPSIPAETSLAHRLVAREGSAAPLPLYTSPSLPNITLGLPATGPSAGTAGQQDTERLTLPALQQRLSLFPGTHLTPYLSTSPLERDGGAAHSPLLQHMVLLEQPPAQAPLVTGLGALPLHAQSLVGADRVSPSIHKLRQHRPLGRTQSAPLPQNAQALQHLVIQQQHQQFLEKHKQQFQQQQLQMNKIIPKPSEPARQPESHPEETEEELREHQALLDEPYLDRLPGQKEAHAQAGVQVKQEPIESDEEEAEPPREVEPGQRQPSEQELLFRQQALLLEQQRIHQLRNYQASMEAAGIPVSFGGHRPLSRAQSSPASATFPVSVQEPPTKPRFTTGLVYDTLMLKHQCTCGSSSSHPEHAGRIQSIWSRLQETGLRGKCECIRGRKATLEELQTVHSEAHTLLYGTNPLNRQKLDSKKLLGSLASVFVRLPCGGVGVDSDTIWNEVHSAGAARLAVGCVVELVFKVATGELKNGFAVVRPPGHHAEESTPMGFCYFNSVAVAAKLLQQRLSVSKILIVDWDVHHGNGTQQAFYSDPSVLYMSLHRYDDGNFFPGSGAPDEVGTGPGVGFNVNMAFTGGLDPPMGDAEYLAAFRTVVMPIASEFAPDVVLVSSGFDAVEGHPTPLGGYNLSARCFGYLTKQLMGLAGGRIVLALEGGHDLTAICDASEACVSALLGNELDPLPEKVLQQRPNANAVRSMEKVMEIHSKYWRCLQRTTSTAGRSLIEAQTCENEEAETVTAMASLSVGVKPAEKRPDEEPMEEEPPL
notes: Complete HDAC4 ORF with C-terminal FLAG tag in pBJ5, transiently expressed in TAg Jurkat cells (untreated) and immunoprecipitated with anti-FLAG agarose; also called HDAC4-FLAG; HDAC4-F

Series [1] addresses B2. The series is described as follows: anti-FLAG co-immunoprecipitation from TAg Jurkat cells, Western blot. (A western blot detects proteins with antibodies after separation by electrophoresis.)
For series [2], the target named is T1, Recombinant FLAG-epitope tagged HDAC6 (human, UniProt Q9UBN7 1-1215).
T1 construct: Full length ORF with C-terminal FLAG tag in pBJ5, expressed in TAg Jurkat cells; also called HDAC6-FLAG; HD6
T1 sequence: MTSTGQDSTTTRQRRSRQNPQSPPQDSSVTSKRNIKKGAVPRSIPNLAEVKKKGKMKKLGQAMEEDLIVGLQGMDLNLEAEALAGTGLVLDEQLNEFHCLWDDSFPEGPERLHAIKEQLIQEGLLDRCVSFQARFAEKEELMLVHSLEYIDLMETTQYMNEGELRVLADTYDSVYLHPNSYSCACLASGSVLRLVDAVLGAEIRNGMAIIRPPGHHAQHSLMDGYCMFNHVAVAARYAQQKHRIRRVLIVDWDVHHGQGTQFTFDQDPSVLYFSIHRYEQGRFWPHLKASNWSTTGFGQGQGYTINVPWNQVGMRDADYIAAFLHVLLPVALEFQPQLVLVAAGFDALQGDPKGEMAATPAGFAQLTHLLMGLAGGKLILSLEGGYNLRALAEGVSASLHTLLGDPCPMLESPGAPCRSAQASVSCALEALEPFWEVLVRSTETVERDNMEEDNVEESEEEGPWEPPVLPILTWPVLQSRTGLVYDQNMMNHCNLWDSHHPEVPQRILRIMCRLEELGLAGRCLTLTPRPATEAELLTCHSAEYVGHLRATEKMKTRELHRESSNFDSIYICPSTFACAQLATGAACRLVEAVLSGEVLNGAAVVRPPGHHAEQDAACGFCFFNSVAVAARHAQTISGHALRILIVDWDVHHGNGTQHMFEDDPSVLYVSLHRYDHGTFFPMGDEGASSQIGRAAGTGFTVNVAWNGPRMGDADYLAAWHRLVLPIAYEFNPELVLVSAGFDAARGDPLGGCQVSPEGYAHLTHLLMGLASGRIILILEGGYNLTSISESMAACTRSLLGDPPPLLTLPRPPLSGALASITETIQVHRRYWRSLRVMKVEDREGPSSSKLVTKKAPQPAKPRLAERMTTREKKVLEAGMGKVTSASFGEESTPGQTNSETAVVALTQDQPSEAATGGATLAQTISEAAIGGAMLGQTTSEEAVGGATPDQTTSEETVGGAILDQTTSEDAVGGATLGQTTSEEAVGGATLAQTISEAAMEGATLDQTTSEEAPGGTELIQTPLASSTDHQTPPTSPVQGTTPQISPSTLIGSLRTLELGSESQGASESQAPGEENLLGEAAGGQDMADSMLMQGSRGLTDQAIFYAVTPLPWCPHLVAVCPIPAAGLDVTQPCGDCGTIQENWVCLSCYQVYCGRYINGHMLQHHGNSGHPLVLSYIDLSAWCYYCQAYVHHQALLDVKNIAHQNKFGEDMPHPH
The description is as above.

The target in series [3] is T2, mSin3A (UniProt Q96ST3 1-1273).
T2 construct: Endogenous protein detected by Western blot in immunoprecipitates; also called co-repressor mSin3A
T2 sequence (looked up): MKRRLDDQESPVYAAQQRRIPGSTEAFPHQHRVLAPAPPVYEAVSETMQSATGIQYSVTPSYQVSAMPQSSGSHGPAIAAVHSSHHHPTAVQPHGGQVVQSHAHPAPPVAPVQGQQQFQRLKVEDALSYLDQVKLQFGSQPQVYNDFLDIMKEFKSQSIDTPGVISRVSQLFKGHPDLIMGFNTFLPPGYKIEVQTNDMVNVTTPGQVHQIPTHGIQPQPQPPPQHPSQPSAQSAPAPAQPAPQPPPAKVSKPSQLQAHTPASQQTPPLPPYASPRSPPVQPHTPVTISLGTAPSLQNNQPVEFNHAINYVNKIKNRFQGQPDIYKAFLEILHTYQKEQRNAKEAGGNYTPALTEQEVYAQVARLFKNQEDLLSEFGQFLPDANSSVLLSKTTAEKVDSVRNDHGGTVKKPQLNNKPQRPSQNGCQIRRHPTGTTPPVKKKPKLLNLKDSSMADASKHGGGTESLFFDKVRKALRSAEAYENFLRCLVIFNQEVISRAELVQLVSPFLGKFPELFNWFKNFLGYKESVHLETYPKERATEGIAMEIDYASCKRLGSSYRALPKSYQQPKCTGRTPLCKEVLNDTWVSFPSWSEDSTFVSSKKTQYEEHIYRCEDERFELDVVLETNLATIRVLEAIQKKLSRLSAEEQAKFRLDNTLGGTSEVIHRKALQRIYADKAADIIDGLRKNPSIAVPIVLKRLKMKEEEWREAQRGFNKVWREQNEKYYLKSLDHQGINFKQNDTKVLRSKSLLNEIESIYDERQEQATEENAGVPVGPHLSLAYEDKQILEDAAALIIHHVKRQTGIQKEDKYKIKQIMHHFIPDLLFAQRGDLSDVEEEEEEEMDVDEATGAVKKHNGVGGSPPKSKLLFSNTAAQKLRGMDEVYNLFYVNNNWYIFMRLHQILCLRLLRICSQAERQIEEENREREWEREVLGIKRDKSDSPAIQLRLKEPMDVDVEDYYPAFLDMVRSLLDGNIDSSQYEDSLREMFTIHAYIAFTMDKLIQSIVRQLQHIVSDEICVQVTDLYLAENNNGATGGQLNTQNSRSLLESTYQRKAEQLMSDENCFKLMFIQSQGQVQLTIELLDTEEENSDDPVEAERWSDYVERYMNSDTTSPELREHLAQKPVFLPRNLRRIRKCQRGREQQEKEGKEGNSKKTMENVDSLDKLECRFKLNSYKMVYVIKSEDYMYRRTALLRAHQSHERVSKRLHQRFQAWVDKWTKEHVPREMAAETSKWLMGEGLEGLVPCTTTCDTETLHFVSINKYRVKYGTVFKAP
The series is described as follows: anti-FLAG co-immunoprecipitation from TAg Jurkat cells, Western blot; an unexplained band of lower molecular weight was seen in the mSin3A blot. The source says: Immunoprecipitates were probed with -CHD4, -mSin3A, -MTA, -RbAp48, -HDAC1, and -HDAC3 antibodies (FIG. 5B).

Series [4] addresses T3, HDAC3 from calyculin A-treated cells, O15379.
T3 chain: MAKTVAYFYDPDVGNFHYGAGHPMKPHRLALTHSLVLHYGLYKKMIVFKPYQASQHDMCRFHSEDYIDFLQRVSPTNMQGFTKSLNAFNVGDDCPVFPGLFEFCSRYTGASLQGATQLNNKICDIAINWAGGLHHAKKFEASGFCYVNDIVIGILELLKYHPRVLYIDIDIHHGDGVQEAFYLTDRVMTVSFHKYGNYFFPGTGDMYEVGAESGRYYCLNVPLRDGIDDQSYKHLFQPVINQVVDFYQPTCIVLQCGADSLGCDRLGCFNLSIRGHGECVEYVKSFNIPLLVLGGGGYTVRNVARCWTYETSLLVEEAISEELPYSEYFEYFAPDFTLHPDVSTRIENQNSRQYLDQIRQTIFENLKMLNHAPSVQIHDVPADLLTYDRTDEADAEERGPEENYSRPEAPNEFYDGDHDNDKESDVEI

Series [5] has as its target T4, CHD4 (UniProt Q14839 1-1912, limits assumed).
T4 construct: Endogenous protein detected by Western blot in immunoprecipitates; also called CHD chromodomain protein
The experiment in a line: anti-FLAG co-immunoprecipitation from TAg Jurkat cells, Western blot.

T4 sequence (Q14839 whole entry): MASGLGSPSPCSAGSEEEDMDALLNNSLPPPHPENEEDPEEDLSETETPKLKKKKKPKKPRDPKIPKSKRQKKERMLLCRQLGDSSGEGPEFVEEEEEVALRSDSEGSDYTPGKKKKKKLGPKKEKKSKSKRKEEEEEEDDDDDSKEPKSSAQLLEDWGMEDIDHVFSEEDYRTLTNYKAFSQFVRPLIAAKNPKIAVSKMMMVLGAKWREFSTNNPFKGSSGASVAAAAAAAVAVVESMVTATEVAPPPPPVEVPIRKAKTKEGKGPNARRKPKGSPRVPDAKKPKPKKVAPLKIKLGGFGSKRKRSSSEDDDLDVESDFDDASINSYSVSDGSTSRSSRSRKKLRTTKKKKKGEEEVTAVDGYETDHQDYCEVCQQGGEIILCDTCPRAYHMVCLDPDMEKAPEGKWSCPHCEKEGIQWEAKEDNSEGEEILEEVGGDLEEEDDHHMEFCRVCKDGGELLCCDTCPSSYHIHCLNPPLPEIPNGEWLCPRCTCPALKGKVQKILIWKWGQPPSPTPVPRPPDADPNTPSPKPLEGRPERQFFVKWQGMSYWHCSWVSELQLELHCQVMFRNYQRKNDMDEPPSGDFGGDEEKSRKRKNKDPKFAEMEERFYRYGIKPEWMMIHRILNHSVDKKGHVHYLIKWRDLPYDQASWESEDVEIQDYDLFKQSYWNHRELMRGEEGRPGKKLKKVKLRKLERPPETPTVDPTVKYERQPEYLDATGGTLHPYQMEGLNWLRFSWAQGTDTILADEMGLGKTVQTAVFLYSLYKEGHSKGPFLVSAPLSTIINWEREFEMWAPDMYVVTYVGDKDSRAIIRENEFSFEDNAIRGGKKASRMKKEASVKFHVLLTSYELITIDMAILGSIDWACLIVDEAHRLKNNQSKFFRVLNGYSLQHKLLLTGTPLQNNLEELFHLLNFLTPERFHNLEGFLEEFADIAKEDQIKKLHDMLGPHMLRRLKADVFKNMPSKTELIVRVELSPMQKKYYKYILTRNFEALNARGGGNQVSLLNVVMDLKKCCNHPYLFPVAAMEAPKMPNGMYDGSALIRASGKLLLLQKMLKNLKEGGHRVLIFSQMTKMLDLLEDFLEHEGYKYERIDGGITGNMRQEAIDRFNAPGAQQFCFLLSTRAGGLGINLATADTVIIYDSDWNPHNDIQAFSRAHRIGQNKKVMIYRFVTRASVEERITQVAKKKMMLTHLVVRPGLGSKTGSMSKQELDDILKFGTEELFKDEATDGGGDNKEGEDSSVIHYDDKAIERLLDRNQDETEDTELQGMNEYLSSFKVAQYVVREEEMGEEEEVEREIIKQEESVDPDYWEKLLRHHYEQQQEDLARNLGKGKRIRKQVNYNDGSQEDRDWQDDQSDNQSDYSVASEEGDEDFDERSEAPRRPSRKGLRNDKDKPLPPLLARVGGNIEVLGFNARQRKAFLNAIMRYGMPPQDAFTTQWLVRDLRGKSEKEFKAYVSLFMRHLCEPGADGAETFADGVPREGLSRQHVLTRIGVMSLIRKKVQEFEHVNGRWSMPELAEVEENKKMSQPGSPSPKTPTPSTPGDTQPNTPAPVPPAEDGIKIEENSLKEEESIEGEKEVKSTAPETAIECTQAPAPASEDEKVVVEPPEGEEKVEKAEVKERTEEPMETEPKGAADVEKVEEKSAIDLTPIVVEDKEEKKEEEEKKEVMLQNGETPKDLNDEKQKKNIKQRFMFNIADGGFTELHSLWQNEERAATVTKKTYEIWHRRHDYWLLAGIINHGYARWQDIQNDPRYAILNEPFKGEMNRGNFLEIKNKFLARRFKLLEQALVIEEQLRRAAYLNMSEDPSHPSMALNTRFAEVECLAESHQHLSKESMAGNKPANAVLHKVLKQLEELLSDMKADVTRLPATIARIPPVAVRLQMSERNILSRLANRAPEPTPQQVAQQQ

B1: MTA (other, UniProt Q13330 1-715, looked up)
chain: MAANMYRVGDYVYFENSSSNPYLIRRIEELNKTANGNVEAKVVCFYRRRDISSTLIALADKHATLSVCYKAGPGADNGEEGEIEEEMENPEMVDLPEKLKHQLRHRELFLSRQLESLPATHIRGKCSVTLLNETESLKSYLEREDFFFYSLVYDPQQKTLLADKGEIRVGNRYQADITDLLKEGEEDGRDQSRLETQVWEAHNPLTDKQIDQFLVVARSVGTFARALDCSSSVRQPSLHMSAAAASRDITLFHAMDTLHKNIYDISKAISALVPQGGPVLCRDEMEEWSASEANLFEEALEKYGKDFTDIQQDFLPWKSLTSIIEYYYMWKTTDRYVQQKRLKAAEAESKLKQVYIPNYNKPNPNQISVNNVKAGVVNGTGAPGQSPGAGRACESCYTTQSYQWYSWGPPNMQCRLCASCWTYWKKYGGLKMPTRLDGERPGPNRSNMSPHGLPARSSGSPKFAMKTRQAFYLHTTKLTRIARRLCREILRPWHAARHPYLPINSAAIKAECTARLPEASQSPLVLKQAVRKPLEAVLRYLETHPRPPKPDPVKSVSSVLSSLTPAKVAPVINNGSPTILGKRSYEQHNGVDGNMKKRLLMPSRGLANHGQARHMGPSRNLLLNGKSYPTKVRLIRGGSLPPVKRRRMNWIDAPDDVFYMATEETRKIRKLLSSSETKRAARRPYKPIALRQSQALPPRPPPPAPVNDEPIVIED
notes: also called metastasis-associated factors (MTA)
Take B1: the binding result in series [1] and in series [2] was “no binding” each time.
Take B2: the binding result in series [3] and in series [5] was “no binding” throughout. Moreover, the “immunoprecipitated HDAC activity (release of 3H-acetic acid)” value in series [4] was “dramatic reduction in immunoprecipitated HDAC activity”.
